{"source": "patent US20240408238", "proteins": {"B1": {"name": "Nme2Cas9 (recombinant, purified; Neisseria meningitidis strain De11444) (protein)", "chain": "PKKKRKVNAMAAFKPNPINYILGLDIGIASVGWAMVEIDEEENPIRLIDLGVRVFERAEVPKTGDSLAMARRLARSVRRLTRRRAHRLLRARRLLKREGVLQAADFDENGLIKSLPNTPWQLRAAALDRKLTPLEWSAVLLHLIKHRGYLSQRKNEGETADKELGALLKGVANNAHALQTGDFRTPAELALNKFEKESGHIRNQRGDYSHTFSRKDLQAELILLFEKQKEFGNPHVSGGLKEGIETLLMTQRPALSGDAVQKMLGHCTFEPAEPKAAKNTYTAERFIWLTKLNNLRILEQGSERPLTDTERATLMDEPYRKSKLTYAQARKLLGLEDTAFFKGLRYGKDNAEASTLMEMKAYHAISRALEKEGLKDKKSPLNLSSELQDEIGTAFSLFKTDEDITGRLKDRVQPEILEALLKHISFDKFVQISLKALRRIVPLMEQGKRYDEACAEIYGDHYGKKNTEEKIYLPPIPADEIRNPVVLRALSQARKVINGVVRRYGSPARIHIETAREVGKSFKDRKEIEKRQEENRKDREKAAAKFREYFPNFVGEPKSKDILKLRLYEQQHGKCLYSGKEINLVRLNEKGYVEIDHALPFSRTWDDSFNNKVLVLGSENQNKGNQTPYEYFNGKDNSREWQEFKARVETSRFPRSKKQRILLQKFDEDGFKECNLNDTRYVNRFLCQFVADHILLTGKGKRRVFASNGQITNLLRGFWGLRKVRAENDRHHALDAVVVACSTVAMQQKITRFVRYKEMNAFDGKTIDKETGKVLHQKTHFPQPWEFFAQEVMIRVFGKPDGKPEFEEADTPEKLRTLLAEKLSSRPEAVHEYVTPLFVSRAPNRKMSGAHKDTLRSAKRFVKHNEKISVKRVWLTEIKLADLENMVNYKNGREIELYEALKARLEAYGGNAKQAFDPKDNPFYKKGGQLVKAVRVEKTQESGVLLNKKNAYTIADNGDMVRVDVFCKVDKKGKNQYFIVPIYAWQVAENILPDIDCKGYRIDDSYTFCFSLHKYDLIAFQKDEKSKVEFAYYINCDSSNGRFYLAWHDKGSKEQQFRISTQNLVLIQKYQVNELGKEIRPCRLKKRPPVRGGGGSGGGGSGGGGSPAAKKKKLDGGGSKRPAATKKAGQAKKKK"}, "B2": {"name": "Nme1Cas9 (Cas9 of Neisseria meningitidis strain 8013) (protein)", "chain": "MAAFKPNSINYILGLDIGIASVGWAMVEIDEEENPIRLIDLGVRVFERAEVPKTGDSLAMARRLARSVRRLTRRRAHRLLRTRRLLKREGVLQAANFDENGLIKSLPNTPWQLRAAALDRKLTPLEWSAVLLHLIKHRGYLSQRKNEGETADKELGALLKGVAGNAHALQTGDFRTPAELALNKFEKESGHIRNQRSDYSHTFSRKDLQAELILLFEKQKEFGNPHVSGGLKEGIETLLMTQRPALSGDAVQKMLGHCTFEPAEPKAAKNTYTAERFIWLTKLNNLRILEQGSERPLTDTERATLMDEPYRKSKLTYAQARKLLGLEDTAFFKGLRYGKDNAEASTLMEMKAYHAISRALEKEGLKDKKSPLNLSPELQDEIGTAFSLFKTDEDITGRLKDRIQPEILEALLKHISFDKFVQISLKALRRIVPLMEQGKRYDEACAEIYGDHYGKKNTEEKIYLPPIPADEIRNPVVLRALSQARKVINGVVRRYGSPARIHIETAREVGKSFKDRKEIEKRQEENRKDREKAAAKFREYFPNFVGEPKSKDILKLRLYEQQHGKCLYSGKEINLGRLNEKGYVEIDHALPFSRTWDDSFNNKVLVLGSENQNKGNQTPYEYFNGKDNSREWQEFKARVETSRFPRSKKQRILLQKFDEDGFKERNLNDTRYVNRFLCQFVADRMRLTGKGKKRVFASNGQITNLLRGFWGLRKVRAENDRHHALDAVVVACSTVAMQQKITRFVRYKEMNAFDGKTIDKETGEVLHQKTHFPQPWEFFAQEVMIRVFGKPDGKPEFEEADTLEKLRTLLAEKLSSRPEAVHEYVTPLFVSRAPNRKMSGQGHMETVKSAKRLDEGVSVLRVPLTQLKLKDLEKMVNREREPKLYEALKARLEAHKDDPAKAFAEPFYKYDKAGNRTQQVKAVRVEQVQKTGVWVRNHNGIADNATMVRVDVFEKGDKYYLVPIYSWQVAKGILPDRAVVQGKDEEDWQLIDDSFNFKFSLHPNDLVEVITKKARMFGYFASCHRGTGNINIRIHDLDHKIGKNGILEGIGVKTALSFQKYQIDELGKEIRPCRLKKRPPVR"}}, "data": [{"protein": "B1", "values": [{"measurement": "in vitro DNA cleavage by Cas9:sgRNA in the presence of Acr (10:1 Acr:Cas9 molar ratio)", "setting": "AcrIIC1Nme", "value": "completely inhibited Nme2Cas9"}, {"measurement": "in vitro DNA cleavage by Cas9:sgRNA in the presence of Acr (10:1 Acr:Cas9 molar ratio)", "setting": "AcrIIC2Nme", "value": "completely inhibited Nme2Cas9"}, {"measurement": "in vitro DNA cleavage by Cas9:sgRNA in the presence of Acr (10:1 Acr:Cas9 molar ratio)", "setting": "AcrIIC3Nme", "value": "completely inhibited Nme2Cas9"}, {"measurement": "in vitro DNA cleavage by Cas9:sgRNA in the presence of Acr (10:1 Acr:Cas9 molar ratio)", "setting": "AcrIIC4Hpa", "value": "completely inhibited Nme2Cas9"}, {"measurement": "in vitro DNA cleavage by Cas9:sgRNA in the presence of Acr (10:1 Acr:Cas9 molar ratio)", "setting": "AcrIIC5Smu", "value": "did not inhibit Nme2Cas9 in vitro even at a 10-fold molar excess"}]}, {"protein": "B2", "values": [{"measurement": "in vitro DNA cleavage by Cas9:sgRNA in the presence of Acr (10:1 Acr:Cas9 molar ratio)", "setting": "AcrE2", "value": "AcrE2 failed to do so"}, {"measurement": "in vitro DNA cleavage by Cas9:sgRNA in the presence of Acr (10:1 Acr:Cas9 molar ratio)", "setting": "AcrIIC1Nme", "value": "all 5 families inhibited Nme1Cas9"}, {"measurement": "in vitro DNA cleavage by Cas9:sgRNA in the presence of Acr (10:1 Acr:Cas9 molar ratio)", "setting": "AcrIIC2Nme", "value": "all 5 families inhibited Nme1Cas9"}, {"measurement": "in vitro DNA cleavage by Cas9:sgRNA in the presence of Acr (10:1 Acr:Cas9 molar ratio)", "setting": "AcrIIC3Nme", "value": "all 5 families inhibited Nme1Cas9"}, {"measurement": "in vitro DNA cleavage by Cas9:sgRNA in the presence of Acr (10:1 Acr:Cas9 molar ratio)", "setting": "AcrIIC4Hpa", "value": "all 5 families inhibited Nme1Cas9"}, {"measurement": "in vitro DNA cleavage by Cas9:sgRNA in the presence of Acr (10:1 Acr:Cas9 molar ratio)", "setting": "AcrIIC5Smu", "value": "all 5 families inhibited Nme1Cas9"}]}]}
